The values below come from a protein production outcome set (Wang et al. 2014).
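Further: failed if final PepcDB status was selected cloned or expressed and not failed if soluble or beyond.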

The series in a line: label from the status in PepcDB records.
Take “MTSDQPIRWGIIGPGTIARTFADGVAHSRTGKLVAIATRNPSKPGLAENFPGARIVNGYEALLSDPEVDAVYISVPHTGHAEWAIKAARAGKHILVEKPIALSAYDAEAVYYEAKKAGVFAGEAFMYRVHPQTEKLVELIKSGVIGTLRIIRSSFGFNMGSYRPEHRLFANDTAGGGILDVGGYPVSMARLIAGAAEGKAFLDPEKVSGVAHLGESGVDEWASAVLKFPNEIIAEVSCSIMAQQDNVLRIIGSEGRIEVADFWFASGHKGGVGKIEIFKGGKQETIEVKEERWLYSFEADAAGDAIRAGRTEFSAPGMGWTDSIANLRVLDQWRASVGLEYGVEKAAKRTNNIAGGAVTRGNSIRQRQIPGISKPASVVTLGFEFFPNFAAASLTLDAFYEAGGNAFDTAYVYGAGKTEAIFGDWHTSRNVPREEIVLIGKGAHSPLCYPDMIAKQLDQSLARLKTDYVDIYFMHRDNTDVPVGEFVDAMDAEVKRGRIRGIFGGSNWTRARFDEAIAYAEKNGKTAPAALSNNFSLAEMLDPIWAGCVAASDDDWKKWLNEKQIPNFAWSSQGRGFFTDRAGRDKRDDEEIVRVWYSERNFGRRDRAIELANKLGRNPIHIALAYVIAQPFPVIPLIGPRTVAELEDSLSALDIRLTPDEVKWLEG”: the protein production entry is “failed”.

Consider “MRIIKNIILISLLFAIILVSLFFGEKWVRTNVKNQAIVYNSQLNPTVMISGSSANNHRFDNLVAILNRQSTTHSLLRVQVNEDNSISYSGRIRPNDSQPYIVIGFQNNSDGYANIKRQAKWLEIAMKFLQKRYHFNHFNAFGHSNGGLDWTIYLEKYFNQKSSTIGTLMTVGSPFNFSEKSESNRTQMLTDLIKNRSKLPRDMTVYSIAGTETYNDDGIVPIESVLSGKYVFQKNVHSYTQITVSGNDSEHSDLPTNPQIVQLIQRDILDGRGQKQSSNPVFNNH”, for which the protein production entry was “failed”.

For “MFVFIPLFTIFILLAGGYFAKRIGVLKQKQARTFLDFAIIFALPCLIFDKAYHLNFDFSLIIFIFIGLFSCILAAFFAILIGKVFHFSKVTLVSMFLLSCFGNTIFVGMPIVAGIFNDPQFSAEVIFYDALATTLPISLFGPFILSLGNGEKVSLLANVKKILSFPPFLALLFGFLCKLITLPEFIFSPIRLFGASATPVALFAIGLGLGFMAIKTSYKPTIVVIFTKMILAPLFFVFCLKIFNLELKDSTIVAIIESAAPTMTLAGAMVMKAKLDSNLAVSAVAFGVLFAFVSMPILIWTLL”, the protein production entry is “failed”.

Take “MPVKLAQALANPLFPALDSALRSGRHIGLDELDNHAFLMDFQEYLEEFYARYNVELIRAPEGFFYLRPRSTTLIPRSVLSELDMMVGKILCYLYLSPERLANEGIFTQQELYDELLTLADEAKLLKLVNNRSTGSDVDRQKLQEKVRSSLNRLRRLGMVWFMGHDSSKFRITESVFRFGADVRAGDDPREAQRRLIRDGEAMPIENHLQLNDETEENQPDSGEEE”: the protein production result was “failed”.

For “MRKFKISVLLKLGFYCLFLSIGLEMQARKFVHPGILHTTKSIERMRAQIADKEYPAYGSFELLKSHHCSQADYQPFGPFEIISRDGEFRHTKSKMEQDFSAVYQNALMWVLTGEKTHAEKSLELLLGYAGTLKRIPETNDAPLLVGLEGLKIIYATEILRHTYKKMTVVQFNEISRMIREVFLPVMENFYHRKPYTNGNWGPIVTKAYMAAAILWDNEEMYNKAVDFYLHANDNGTIAHYISGDTGQIQESGRDQGHSMLGIGALATVCEIAWQQGDDLYSALDNRLMKGFEYVAKYNLGYNVPFAVWKDVTGKYSNWTEISNKGRGRYMPIFEMTYNHFVIRKGMQMPYTEQVLRQIRPEGYDRDQPAFGSLLFNEAGTKKNYVDLVNPFVDSHRSRWFFFSSACRPFGMVSLSPDTDTEHSWGSGYLYDSKQIRCFSHVHNWQMSGVAVMPTVGEFKGHLGMNAYQSAFTHDGEIAKPGYHKVKLTDYDITAELTSTMRVGFHCYTFPKSDASYILFDTGAFLAHGPTAYSEVWKVSDKEIAGWEMMERTGRRPKDTPVYFYAQLSKPMDKVVSWREGRIESNSNPERISGKNAGMAVRFKTEKDEKVMLKVAISYVSVEQARKNMLTELSGWDFEQVKQSSFSEWNDWLGRIEVEGGSREQQIKLYTDLWHALLGRHVVSDADGHYMDMTSDFPRIRQIPLGEDGKPLYNHHNFDAWWGSHWSLNILWSMAYPEVMDNFCNTMIDMYQNGGLIPRGPSGGNYTYVMIGDPAVSFFASAYNKGIRNYDAELAYEGLRKNAFVGGIRDHAGYEHSKTAYSGGMKYYEEWGYVPDGRKDVEGMHTTGASMTLEYAYQDWCLAQMAKTMGKLQDYEFFMKRSKNYRNLWNPESGYMQPRGEDGNWLPYFDPLELTEKGGFCESNSAIYSHYVPHDMAGLIELYGGADQYVKRLNANFEKSESYGFFRSNKTKEGNWTDYGNQPGTGMAHLFSYAGAPWLTQKWVRKVKAAYCDVTPYGGYRDDEDQGQMGALGVLMAIGLFEVDGGCAEKPFYEITSPLFDKVTIHLDNRYYSGKTFQIITKGNSTDNMYIQNASLNGKKWNKCWFYHEDFIKGGTLELKLGAKPNKKWGVEELPPSFISSK”, the protein production result is recorded as “failed”.

On to “EQQADGTWLMDGWISIRKASNLLEHDLVDEAERYSTLGGYLLWQFGYIPAAGEQITVDGLIFEIVSVNKHNIGKVRVHRTQ”, for which the protein production result was “not failed”.

Take “MTGTLLSFGHGYTARVLSRALAPQGWRIIGTSRNPDQMEAIRASGAEPLLWPGEEPSLDGVTHLLISTAPDSGGDPVLAALGDQIAARAAQFRWVGYLSTTAVYGDHDGAWVDETTPLTPTAARGRWRVMAEQQWQAVPNLPLHVFRLAGIYGPGRGPFSKLGKGGIRRIIKPGQVFSRIHVEDIAQVLAASMARPDPGAVYNVCDDEPVPPQDVIAYAAELQGLPLPPAVDFDKADLTPMARSFYSENKRVRNDRIKEELGVRLKYPNYRVGLEALQADAET”: the protein production entry was “not failed”.

Consider “MVDAASTGLFLDAAGMKALGAAIAIAVTGLASAIAEKDIGTAAIGAMAENEGLFGKGLILTVIPETIVIFGLVVALLINQ”, for which the protein production result was “failed”.

With “MELDGKAPSHRNLNVQTWSTAEGAKVLFVEARELPMFDLRLIFAAGSSQDGNAPGVALLTNAMLNEGVAGKDVGAIAQGFEGLGADFGNGAYKDMAVASLRSLSAVDKREPALKLFAEVVGKPTFPADSLARIKNQMLAGFEYQKQNPGKLASLELMKRLYGTHPYAHASDGDAKSIPPITLAQLKAFHAKAYAAGNVVIALVGDLSRSDAEAIAAQVSAALPKGPALAKIEQPAEPKASIGHIEFPSSQTSLMLAQLGIDRDDPDYAAVSLGNQILGGGGFGTRLMSEVREKRGLTYGVYSGFTPMQARGPFMINLQTRAEMSEGTLKLVQDVFAEYLKNGPTQKELDDAKRELAGSFPLSTASNADIVGQLGAMGFYNLPLSYLEDFMRQSQELTVEQVKAAMNKHLNVDKMVIVSAGPTVAQKPLEHHHHHH”, the protein production entry was “not failed”.

On to “MKRKMLKRLLTSAFACMFIANGLITTTVRAVGPKTGEENQVLVPNLNPTPENLEVVGDGFKITSSINLVGEEEADENAVNALREFLTANNIEINSENDPNSTTLIIGEVDDDIPELDEALNGTTAENLKEEGYALVSNDGKIAIEGKDGDGTFYGVQTFKQLVKESNIPEVNITDYPTVSARGIVEGFYGTPWTHKDRLDQIKFYGENKLNTYIYAPKDDPYHREKWREPYPENEMQRMQELIDASAENKVDFVFGISPGIDIRFDGEAGEEDFNHLIAKAESLYDMGVRSFAIYWDDIQDKSAAKHAQVLNRFNEEFVKAKGDVKPLITVPTEYDTGAMVSNGQPRTYTRIFAETVDPSIEVMWTGPGVVTNEIPLSDAQLISGIYNRNMAVWWNYPVTDYFKGKLALGPMHGLDKGLNQYVDFFTVNPMEHAELSKISIHTAADYSWNMDNYDYDKAWNRAIDMLYGDLAEDMKVFANHSTRMDNKTWAKSGREDAPELRAKMDELWNKLSSKEDASALIEELYGEFARMEEACNNLKANLPEVALEECSRQLDELITLAQGDKASLDMIVAQLNEDTEAYESAKEIAQNKLNTALSSFAVISEKVAQSFIQEALSFDLTLINPRTVKITASSEETSGENAPASFASDGDMNTFWHSKWSSPAHEGPHHLTLELDNVYEINKVKYAPRQDSKNGRITGYKVSVSLDGENFTEVKTGTLEDNAAIKFIEFDSVDAKYVRLDVTDSVSDQANGRGKFATAAEVNVHGKLKEAAEVTGSVSLEALEEVQVGENIEVGVGIDELVNAEAFAYDFTLNYDENAFEYVEAISDDGVFVNAKKIEDGKVRVLVSSLTGEPLPAKEVLAKVVLRAEAKTEGSNLSVTNSSVGDGEGLVHEIAGTEKTVNIIEGTSPEIVVNPVRDFKASEINKKNVTVTWTEPETTEGLEGYILYKDGKKVAEIGKDETSYTFKKLNRHTIYNFKIAAKYSNGEVSSKESLTLRTAR”, for which the protein production result is reported as “failed”.

For the sequence “MRIQTTFSRKLVLMSLLAVFCGCADVHSSVKGDAMVEQAKGGVLREIKVAETGEGARVVLSADRPLAYTFYKTADPPKAVIDLARTEPGAIASPMDVNSDTIRRIETVRYGEGATAMTRVEVYFTRDTEANATIDASDKGMLVLAVARPVAPAASVAVEAAPAAGQAGESSTGAPVAVAAAPAVAPAPVAVEPQAPIAPVVAPQTGPPVIKAIEAQNGYLVIETSGEIKDFKFFRLAKPDRLVVDISDARLGINSKAIPLNALGVGMARIGAYPDKVRIVLDAAGGTLSPLNVTKGAAGLIVAPADKVVDVPRAAAPPQPSASASQARQPEAVKSAEPAKGLTPAVDAIEFKVLDGTSRITVAVTGACANDKPVKSADGFSVTLRNCILPKKLQRHLDTGAFASVVQKVTPYQVKTKGRSDVKIQVQLRQPASYDVRRDGDLLQVSVRNPEGFEPPVADVPASPTLQDGMDQAAVRQKEPSRETDPLAGVAQSGGTKKAYTGRRVTLEFSDADIRKIFQLIAEVSNLNFLVGDDVTGTISLKLVNVPWDQALDVILENKGLGMQRDGNIVQIRPKSKIQTLADEEQALKRAKERGMELKTEVFDINFAAVGDIVSQFNAVKSERGTISQDARTNRVIVKDIEPALAEMRILLKNLDLPEKQVLIEARIVEATSTFTRDLGVQWGIHSNDSGADIIRSVDAGFGGIVTPPPASGFPAATSSGGAVGISFAKMGSLQVDLRLSAAAVAGLVKIVSTPKVVTLNNKAAKISQGQSIPYQTTSAEGTKTEFVEAALTLEVTPHITADGSVSMKIKASNNSAGTGSPPPINKKEATTELLVKNGETTVIGGIYVDSDTDEDRGVPFLMDIPVLGWLFKSNTKNKTKTELLIFITPKIVS”, the protein production result was “failed”.

For “MTKTAKVNDIVRDWVVLDAKDKVFGRLITEIAVLLRGKHRPFYTPNVDCGDFVVVINANKVKFSGMKLEDKEYFTHSGYFGSTKSKTLQEMLEKAPEKLYHLAVRGMLPKTKLGKAMIKKLKVYRDDKHPHTAQTSKKDAK”, the protein production result is recorded as “failed”.

“MEKYIFWVTAIFQIGVFALMLYYLFIALFGFYKKKDTKTFEPQKKFAMLVAAHNEEVVIENLVESLKHLDYPKELYDIFVIADNCTDNTAKIARAAGANVFERFNKEKRGKGFALEWMFDKIFKMDTHYDGIAVFDADNLVDKNFLKEMNNKMCEGFKVVQGYIDSKNPQDSWITESYAIAFTSANRMLQLAKSNIGLSAQIGGTGFVIDTATLKKLGWGATCLTEDLEFSCKLILNGEKVGWAHDAIIYDEKPLTLKASWNQRKRWMQGFADVATRYGMKLLKKSIKDRSLVAFDCTLYVMQPFVTLATGLAGLLTFVQIRAVDGLGIFVISYLFNATVWQLFCVFQFLLTPFALLFDKKMSGKLFVVLGLYACNVFIQPYLINQLGILDNIMLLTLFNVAYIGIFLIGTLLFLGKRNFQIFYRYLIYPLYILTWIPITIQGIIDKDKKEWSHTKHVRQIGIYEV”: the protein production entry is recorded as “failed”.

With “MGHHHHHHHHHHSSGHIDDDDKHMEVSVLIPAAGNGLRLGRGPKAFLQVGGRTLLEWTLAAFRDAAEVLVALPPGAEPPKGLGAVFLEGGATRQASVARLLEAASLPLVLVHDVARPFVSRGLVARVLEAAQRSGAAVPVLPVPDTLMAPEGEAYGRVVPREAFRLVQTPQGFFTALLREAHAYARRKGLEASDDAQLVQALGYPVALVEGEATAFKITHPQDLVLAEALARVWSA”, the protein production result was “not failed”.

For “TSSLQGNLLISVPRDFGLLFIAPNLPTFMAKHPHLHIEVEFNDKKIDLLSEGYDLALRIGYMEDSSLVSRKIGTTTVHFAASPNYLETNGIPQTPDDLEHHNGLLYKNAMNQVNWVGSRINQTQRFKIQSKVVSNSGFALL”, the protein production result was “failed”.
